Values joined by “and” are separate entries in the source; they are usually repeats but may differ in a detail not shown here. Equal entries are not always repeated.
Assays:
[1] = target: human folate receptor alpha (FRA) (human) (UniProt P15328); test: flow cytometry on OVCAR-3B cells, secondary antibody alone (background)
[2] = target: human folate receptor alpha (FRA) (human) (UniProt P15328); test: flow cytometry on NCI-H292 cells, secondary antibody alone (background)
[3] = target: human folate receptor alpha (FRA) (human) (UniProt P15328); test: flow cytometry on SK-OV-3 cells, secondary antibody alone (background)
[4] = target: human folate receptor alpha (FRA) (human) (UniProt P15328); test: flow cytometry on NCI-H2110 cells, secondary antibody alone (background)
[5] = target: human folate receptor alpha (FRA) (human) (UniProt P15328); test: flow cytometry on NCI-H2110 cells, 10 µg/mL
[6] = target: human folate receptor alpha (FRA) (human) (UniProt P15328); test: flow cytometry on SK-OV-3 cells, 10 µg/mL
[7] = target: human folate receptor alpha (FRA) (human) (UniProt P15328); test: flow cytometry on OVCAR-3 cells, 10 µg/mL
[8] = target: human folate receptor alpha (FRA) (human) (UniProt P15328); test: flow cytometry on NCI-H292 cells, 10 µg/mL

Sequence of human folate receptor alpha (FRA) (human) (P15328 25-234 limits assumed): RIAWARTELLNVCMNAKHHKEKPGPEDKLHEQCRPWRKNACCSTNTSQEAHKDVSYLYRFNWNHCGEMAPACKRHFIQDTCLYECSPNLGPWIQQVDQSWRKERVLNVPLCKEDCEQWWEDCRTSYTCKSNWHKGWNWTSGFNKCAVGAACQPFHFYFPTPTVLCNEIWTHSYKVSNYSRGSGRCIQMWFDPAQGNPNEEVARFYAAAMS

Substance | MFI [1] | MFI [2] | MFI [3] | MFI [4] | MFI [5] | MFI [6] | MFI [7] | MFI [8]
goat F(ab')2-anti-human IgG (H+L)-RPE or goat anti-human IgG-RPE (antibody) | 5 MFI | 6 MFI | 6 MFI and 5 MFI | 5 MFI | – | – | – | –
isotype control antibody human IgG | – | – | – | – | 5 MFI | 6 MFI | 7 MFI | 6 MFI
